According to patent US20240350682A1 (FUSION PHARMACEUTICALS, published 2024):
Positions count from the first letter of the chain named.

T1: six-transmembrane epithelial antigen of prostate-2 (STEAP2) (human, UniProt Q8NFT2 1-490)
T1 construct: Endogenous STEAP2 on prostate cancer cell lines (LNCaP, C4-2, 22RV1); also called STEAP2 receptor
T1 sequence: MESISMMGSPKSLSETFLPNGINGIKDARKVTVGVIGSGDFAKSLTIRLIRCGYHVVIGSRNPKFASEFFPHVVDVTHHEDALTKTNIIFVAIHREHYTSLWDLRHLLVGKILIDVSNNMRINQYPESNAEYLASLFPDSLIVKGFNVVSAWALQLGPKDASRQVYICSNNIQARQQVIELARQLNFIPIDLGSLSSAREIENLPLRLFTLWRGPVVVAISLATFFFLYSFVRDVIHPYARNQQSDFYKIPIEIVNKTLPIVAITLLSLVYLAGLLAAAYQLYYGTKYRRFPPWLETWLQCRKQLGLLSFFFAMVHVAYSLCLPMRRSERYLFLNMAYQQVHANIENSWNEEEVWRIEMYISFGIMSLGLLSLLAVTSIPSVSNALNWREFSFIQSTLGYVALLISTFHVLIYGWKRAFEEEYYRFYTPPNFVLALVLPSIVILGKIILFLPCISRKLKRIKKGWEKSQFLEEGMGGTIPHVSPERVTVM

B1: 40A3-LO14 (IgG1-TM) (antibody, V domains shown)
VH: QVQLQQSGPGLVKPSQTLSLTCAISGDSVSRNSAVWNWIRQSPSRGLEWLGRTYYRSKWYNDYAPSVKSRITINPDTSKNQFSLQLNSVTPEDTAVYYCARGLRQNQFYYYMDVWGKGTTVTVSS
VL: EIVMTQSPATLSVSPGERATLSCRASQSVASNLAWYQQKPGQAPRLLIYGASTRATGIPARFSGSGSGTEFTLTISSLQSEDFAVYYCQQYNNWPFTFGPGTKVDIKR
notes: Human IgG1 kappa with reduced effector function (IgG1-TM); also called 40A3GL-LO14; 40A3-LO14 hIgG-TM
B2: 40A3-LO11 (IgG1-TM) (antibody, V domains shown)
VH: B1 VH with R104L
VL: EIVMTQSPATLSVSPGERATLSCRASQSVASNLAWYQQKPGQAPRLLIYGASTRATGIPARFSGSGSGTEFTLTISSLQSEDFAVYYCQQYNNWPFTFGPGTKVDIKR
B3: [177Lu]-STEAP2 (40A3-LO11) (antibody, human IgG1, kappa, V domains shown)
VH: B1 VH with R104L
VL: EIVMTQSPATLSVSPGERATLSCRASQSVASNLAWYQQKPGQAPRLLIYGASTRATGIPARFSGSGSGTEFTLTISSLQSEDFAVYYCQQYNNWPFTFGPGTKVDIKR
modifications: 177Lu complex of the DOTA chelate of Compound C (PEG3 linker) conjugated to the antibody; sites, chain and ratio not stated for this antibody
notes: Radioimmunoconjugate of 40A3-LO11; also called [177Lu]-Compound C-anti-STEAP2 conjugate
B4: [177Lu]-STEAP2 (40A3-LO14) (antibody, human IgG1, kappa, V domains shown)
VH: B1 VH
VL: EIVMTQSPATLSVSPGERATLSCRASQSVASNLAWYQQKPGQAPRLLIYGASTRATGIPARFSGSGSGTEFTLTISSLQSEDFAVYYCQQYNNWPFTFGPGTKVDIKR
modifications: 177Lu complex of the DOTA chelate of Compound C (PEG3 linker) conjugated to the antibody through its tetrafluorophenyl ester; sites and chain not stated; typical chelate to antibody ratios 5-5.5
notes: also called [177Lu]-Compound C-anti-STEAP2 conjugate; [177Lu]-DOTA-anti-STEAP2 conjugate

Experiments:
[1] = molecular target: T1, six-transmembrane epithelial antigen of …; assay: cell binding on LNCaP cells
[2] = molecular target: T1, six-transmembrane epithelial antigen of …; assay: cell-based binding on LNCaP cells
[3] = molecular target: T1, six-transmembrane epithelial antigen of …; assay: radioligand saturation binding on LNCaP cells, single-site fit of specific binding
Experimental: (§1) The purpose of this assay was to ensure that the radioimmunoconjugates maintained the binding characteristics of the native antibody in STEAP2 expressing cell lines including C4-2, 22RV1 and LNCaP. One day prior to the experiment, cells (1.5-2×10⁵) were seeded in 48-well microplates in 500 μL supplemented medium. At the start of the assay, cells were washed with PBS once and then treated with either Binding Buffer or 5 μM cold antibody [total binding (TB) and non-specific binding (NSB) respectively]. Plates were incubated at 4° C. for about one hour with mild shaking. Following incubation, both […] and NSB cells were treated with increasing concentrations of [¹⁷⁷Lu]-STEAP2 (40A3-LO11) or [¹⁷⁷Lu]-STEAP2 (40A3-LO14) (0.098 nM to 50 nM) and were incubated at 4° C. for about two hours with mild shaking.
(§2) Following incubation, the cells were washed twice with PBS and were then lysed with 1% Triton-X-100. The lysates were transferred to gamma counting tubes and run along with the standard of [¹⁷⁷Lu]-STEAP2 (40A3-LO11) or [¹⁷⁷Lu]-STEAP2 (40A3-LO14) on the Wizard 1470 gamma counter to determine the amount of radioactivity in counts per minute (CPM) for each lysate. The remaining lysate from each well (25 μL) was used for analyzing the protein content using a standard protein quantification assay.

[4] = molecular target: T1, six-transmembrane epithelial antigen of …; assay: saturation radioligand binding on LNCaP cells (4 °C); specific = total minus nonspecific binding in the presence of excess unlabeled antibody; single-site fit
Experimental: as §1, §2

[5] = molecular target: T1, six-transmembrane epithelial antigen of …; assay: saturation radioligand binding on 22RV1 cells (4 °C); specific = total minus nonspecific binding in the presence of excess unlabeled antibody; single-site fit
Experimental: as §1, §2

[6] = molecular target: T1, six-transmembrane epithelial antigen of …; assay: radioligand saturation binding on 22RV1 cells, single-site fit of specific binding
Experimental: as §1, §2

[7] = molecular target: T1, six-transmembrane epithelial antigen of …; assay: saturation radioligand binding on C4-2 cells (4 °C); specific = total minus nonspecific binding in the presence of excess unlabeled antibody; single-site fit
Experimental: as §1, §2

[8] = molecular target: T1, six-transmembrane epithelial antigen of …; assay: radioligand saturation binding on C4-2 cells, single-site fit of specific binding
Experimental: as §1, §2

EC50 [1] [nM]	fold improvement in binding relative to 40A3-LO7 [2] [fold]	Kd [3] [nM]	Kd [4] [nM]	Kd [5] [nM]	Kd [6] [nM]	Kd [7] [nM]	Kd [8] [nM]	Binder
1.67	26	–	–	–	–	–	–	B1
2.38	–	–	–	–	–	–	–	B2
–	–	~1.2	1.24	6.77	~6.7	6.58	~6.9	B3
–	–	~0.79	–	3.26	~3.2	2.82	~2.8	B4
